Results: FireProtDB (doi:10.1021/bi00185a025)

B1: Chemotaxis protein CheY, P0AE67 (parent)
chain: MADKELKFLVVDDFSTMRRIVRNLLKELGFNNVEEAEDGVDALNKLQAGGYGFVISDWNMPNMDGLELLKTIRADGAMSALPVLMVTAEAKKENIIAAAQAGASGYVVKPFTAATLEEKLNKIFEKLGM

Variants of: B1
Conditions: Escherichia coli (strain K12); pH 7; 25 °C; Urea; CD; Sodium phosphate 5 mM; reversible: yes; structure 1CEY; whole UniProt chain shown

## F14N
  ddG of mutation (higher = less stable): -2.9 kcal/mol
  denaturant m value: 1.8 kcal/mol/M
  denaturant midpoint (higher = more stable): 4.5 M
  unfolding free energy: 8.1 kcal/mol

## P110G F14N
  ddG of mutation (higher = less stable): -1.1 kcal/mol
  denaturant m value: 1.6 kcal/mol/M
  denaturant midpoint (higher = more stable): 3.94 M
  unfolding free energy: 6.3 kcal/mol
